Measurements reported in the supplement of paper PMC12764529.
± gives the half width of the 95% confidence interval.

Key:
[1] = folding stability dG unfold (combined trypsin and chymotrypsin); higher = more stable
Method in brief: (§1)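 Sequencing followed digestion of designed mini-proteins with trypsin and chymotrypsin, each at 11 concentrations in threefold dilutions together with a no-protease condition. The mini-proteins were under 80 residues, had no cysteine, sat in a PA-tagged cDNA display construct, and were kept only if AlphaFold2 dimer inter-PAE was above 15. From the counts, Bayesian fitting gave K50, and unfolding free energy was derived against a sequence-predicted unfolded-state K50 and a shared folded-state K50, per protease or combined.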

[2] = folding stability dG unfold from chymotrypsin proteolysis; higher = more stable
Method in brief: as §1

[3] = folding stability dG unfold from trypsin proteolysis; higher = more stable
Method in brief: as §1

Sequence | folding stability dG unfold [1] [kcal/mol] | folding stability dG unfold [2] [kcal/mol] | folding stability dG unfold [3] [kcal/mol]
SAGGSAGKPRPIDIWIPLPPGAEEVKIEQLDIFIPDGWRIRIEEIEIDPEDPGYIRVTVKIQPLDDSAGGSA [r15_852_TrROS] | 2.56 ± 0.16 | 2.78 ± 0.045 | 2.33 ± 0.1
SAGGAPSSFSTSSDPDGTQLLVVTEPGSGKPRTVRIPPGLNEAVTIPPSRSVSSVELVRVSPASPALLSAGG [r13_122_JUSTAS] | -0.803 ± 0.14 | -0.734 ± 0.18 | -1.16 ± 0.46
SAGGSAGGSAGGSKKYKAKIVSVEYDEETKEVTIKVKLENGEEKTITMSLEELKEIELPSAGGSAGGSAGGS [r4_51_TrROS_Hall] | 2.77 ± 0.079 | 3.15 ± 0.033 | 1.97 ± 0.081
SMKLIGVEEFENAKAVLFEKEDKYIKLVFIPEDIPEGEEIYYIKVFEGDEIIEEKAVKPEEIEEAIKEAGSA [r9_57_TrMRF] | 0.428 ± 0.21 | 0.643 ± 0.21 | 0.00129 ± 0.12
SAEVRVEIVEVDEERGVIRIEITVPEDLPEEEILEELARRLEELARERGYEVRIERREDGTYRIEIRFPSAG [r14_865_TrROS_Hall] | 4.25 ± 0.11 | 4.26 ± 0.071 | 4.18 ± 0.16
SAGGSAAMVPPEELAERLAEELAAKEGREVTEVTVEVLDPERGVVRVTVTFRSPEGLSTRTVVVDLSAGGSA [r15_32_JUSTAS] | 3.21 ± 0.049 | 3.191 ± 0.026 | 3.24 ± 0.057
SAGGSAGGSAGGMKTIVFTTLSPEEAQALADELKAKGVDVEVTYEPVPVTPRPLPLNRLSAGGSAGGSAGGS [r10_361_JUSTAS] | 2.57 ± 0.097 | 3.06 ± 0.063 | 2.04 ± 0.059
SAGGSAGGSDKYVVVIRVVNKETKKVTTLVFEGLKTPEELKAAVEALLPPGVVKVEIRVVKLPSAGGSAGGS [r20_29_TrROS_Hall] | 3.18 ± 0.15 | 3.28 ± 0.12 | 2.89 ± 0.18
SAGGSAGGSKITVHRNPPGYYVIRIHGPGPITIMIPPKDADELANKLKDLGFDMKVEVYPLDDSAGGSAGGS [r20_124_TrROS] | 1.1 ± 0.11 | 1.05 ± 0.1 | 1.23 ± 0.028
SAGGSAGGSAGGKEEEARKLAEELAKELGLEIVEVKVERTEKEVKVTIRIKKDGKEIEFSAGGSAGGSAGGS [r10_161_TrROS_Hall] | 1.29 ± 0.12 | 1.36 ± 0.025 | 1.09 ± 0.048
SAGGYDFDPRGEFPFPNGVKVEVWEMTWPDGNPMTMIEIEATIPPPPKPPMSPEDAKENNKDMAKNNSAGGS [r16_8_TrROS] | 0.211 ± 0.21 | 0.403 ± 0.16 | -0.415 ± 0.12
SAGGSAGGLEEELKLAKENPGEFEGVTVKLESVIEVTTTDPTTGKPTTKLVRVESEITFPPGLKSAGGSAGG [r6_560_JUSTAS] | 0.834 ± 0.2 | 1.05 ± 0.1 | 0.2 ± 0.13
SGPAEGFEAELVEEYTLPETERVFVYRVTHPDGTEYVLVVVRNPDGTWEPVFVYRPDDPDALREALELLGSA [r9_1069_TrMRF] | 3.47 ± 0.057 | 3.595 ± 0.022 | 3.11 ± 0.081
SAGGSAGGSKKPKITITIEILVKNEDGKLYLFRIEIEINENGEISIKMEIFELKDIKPGDILLSAGGSAGGS [r12_38_TrROS_Hall] | 3.56 ± 0.38 | 3.94 ± 0.13 | 2.63 ± 0.19
SAGGSPLVLTSEVEKKFENSPDKTVEKYKIKVTVYDPKTGKKLKEIELEKTVEKGGNEKIEEPIILSAGGSA [r2_271_JUSTAS] | 0.419 ± 0.16 | 0.487 ± 0.21 | 0.146 ± 0.084
SAGGSAGGSAGLEIKIPNGNKTITVEKTKDYYKATIYFPETGEKVEFTFPPNVSLSLLDISAGGSAGGSAGG [r11_772_TrMRF] | 1.62 ± 0.18 | 1.12 ± 0.073 | 1.98 ± 0.11
SAGGSAGGGYAEFETTAVLPDGRVYRAKIVLSPDPDIVKIRLFSPEGEEEIELHPDDPLLLTPGSAGGSAGG [r6_926_TrMRF] | 1.62 ± 0.051 | 1.66 ± 0.062 | 1.46 ± 0.034
SAGGSAGGSMRVEITEVKEVRGEGGEPRYLVTVRITVPDGKEETFVYEFKTPEELEKLEVELPSAGGSAGGS [r20_130_JUSTAS] | 3.13 ± 0.061 | 3.37 ± 0.038 | 2.55 ± 0.062
SAGMVLEYEGVDEEEKLLARAEELRAELRARHPRVRVELEVEVKPTPGNKYRYRVTLTIEPLAPDEARASAG [r5_936_JUSTAS] | 1.99 ± 0.15 | 2.09 ± 0.11 | 1.75 ± 0.11
SAGGSAGGWFYIMFPIPPGYKVEAEWKFPNGPKVKSEIHPDGPIMITIPPGMANMPDFEIKIEPSAGGSAGG [r6_237_TrROS] | 3.2 ± 0.15 | 3.77 ± 0.084 | 2.35 ± 0.12
SAGGKPPGLSEIPLPDNKTEKVPVNSDIVLKRPDGTELKYKLPPEPVTTEKNKYTIKLPNGEITIPINSAGG [r13_643_JUSTAS] | -0.0992 ± 0.32 | -0.0683 ± 0.26 | -1.03 ± 0.26
